Key:
MCR-1蛋白 [1] = experiment: indirect ELISA; MCR-1 coated at 0.2 ug/mL; purified antibody (1 mg/ml) diluted two-fold from 1:1000; goat anti-mouse secondary
MCR-1蛋白 [2] = experiment: double-antibody sandwich ELISA; 1HD4 coated at 0.2 mg/ml as capture, HRP-labelled 1JA9 as detection, OD450

| Binder | 效价 (ELISA titer, dilution of 1 mg/ml antibody) (dilution factor (1:x)) (MCR-1蛋白 [1]) | 检测抗原灵敏度 (dilution factor) (dilution factor (1:x)) (MCR-1蛋白 [2]) |
| --- | --- | --- |
| 鼠抗MCR-1蛋白单克隆抗体 1HD4 (antibody, V domains shown) VH: VKLQESGPELVKPGASVKVSCKASGYIFTCCKMYWVKQSHGKSLEWIGYFDPYNGDTSSNQKFKGKVTLTVDKSSSTAYMFLNSLTSEDSAVYYCASWLQNYYAMDYWGQGTSVTVSS VL: DVQMTQTTSSLSASLGDRVTISCRASQDISNYLNWYQQKPDGTVKLLIYYTSRLHSGVPSRFSGSGSGADYSLTISNLEEEDIATYFCQQGNTFPYTFGGGTKLEIK | > 1.28e+06 | – |
| 鼠抗MCR-1蛋白单克隆抗体 1JA9 (antibody, V domains shown) VH: VKLQESGPELVKPGASVKMSCRTSGYTFTSYIMHWVKQKPGQGLEWIGYFNPYTDGSKYNEMFNGKATLSSDKSSGTAYMEFSSLTSEDSAVYYCARGPYGNYAMDYWGQGTSVTVSA VL: EILLTQTPLSLPVSLGDQASISCRSSQNIVHSYGNPSLEWYLQKPGQSPKLLIYKVSNRFSGVPDRFSGSGSGTDFTLKISRVEAEDLGVYYCFQASHVPWTFGGGTKLEIKR | > 1.28e+06 | 5.12e+06 |
